{
  "source": "patent US20230357367A1",
  "assay_in_all_cases": "cell-based or functional assay",
  "key": {"[1]": {"biological_target": "SARS-CoV-2 Omicron BA.4/5+K444T Spike on pseudovirus (SARS-CoV-2)"}, "[2]": {"biological_target": "spike (SARS-CoV-2, D614G) (SARS-CoV-2) (UniProt P0DTC2)"}, "[3]": {"biological_target": "spike (SARS-CoV-2, D614G) (SARS-CoV-2) (UniProt P0DTC2)", "remark": "listed apart in the source"}, "[4]": {"biological_target": "spike (SARS-CoV-2, D614G) (SARS-CoV-2) (UniProt P0DTC2)", "remark": "listed apart in the source"}, "[5]": {"biological_target": "spike (SARS-CoV-2, D614G) (SARS-CoV-2) (UniProt P0DTC2)", "remark": "listed apart in the source"}, "[6]": {"biological_target": "spike (SARS-CoV-2, D614G) (SARS-CoV-2) (UniProt P0DTC2)", "remark": "listed apart in the source"}, "[7]": {"biological_target": "spike (SARS-CoV-2, BA.1.1 P1162S) (SARS-CoV-2)"}, "[8]": {"biological_target": "spike (SARS-CoV-2, BA.5.8 P1162L) (SARS-CoV-2)"}},
  "note": "Read-outs that look alike come from different tables or passages of the source.",
  "data": [
    {"substance": "Sotrovimab VH/VL (human IgG1 molecule expressing the same variable regions of Sotrovimab) (antibody)", "values": [
      {"measurement": "Neutralization - IC50, pseudovirus", "setting": "[1]", "result": 304, "unit": "ng/mL"}
    ]},
    {"substance": "sotrovimab VH/VL-huIgG1 (antibody)", "values": [
      {"measurement": "EC50, pseudovirus neutralization, Vero E6", "setting": "[2]", "result": 27.9, "unit": "ng/mL"}
    ]},
    {"substance": "sotrovimab VH/VL-hamIgG2a (antibody)", "values": [
      {"measurement": "EC50, pseudovirus neutralization, Vero E6", "setting": "[2]", "result": 8.51, "unit": "ng/mL"}
    ]},
    {"substance": "sotrovimab VH/VL-huIgG1-LS (antibody)", "values": [
      {"measurement": "Emax, pseudovirus neutralization, Vero E6, with isotype (% neutralization)", "setting": "[3]", "result": 98.3},
      {"measurement": "EC90, pseudovirus neutralization, Vero E6, with isotype", "setting": "[4]", "result": 170, "unit": "ng/mL"},
      {"measurement": "EC80, pseudovirus neutralization, Vero E6, with isotype", "setting": "[5]", "result": 69, "unit": "ng/mL"},
      {"measurement": "EC50, pseudovirus neutralization, Vero E6, with isotype", "setting": "[6]", "result": 14, "unit": "ng/mL"},
      {"measurement": "EC50, pseudovirus neutralization, Vero E6", "setting": "[2]", "result": 35.2, "unit": "ng/mL"}
    ]},
    {"substance": "bebtelovimab (antibody)", "values": [
      {"measurement": "Emax, pseudovirus neutralization, Vero E6, with isotype (% neutralization)", "setting": "[3]", "result": 99.7},
      {"measurement": "EC90, pseudovirus neutralization, Vero E6, with isotype", "setting": "[4]", "result": 11, "unit": "ng/mL"},
      {"measurement": "EC80, pseudovirus neutralization, Vero E6, with isotype", "setting": "[5]", "result": 2.9, "unit": "ng/mL"},
      {"measurement": "EC50, pseudovirus neutralization, Vero E6, with isotype", "setting": "[6]", "result": 0.29, "unit": "ng/mL"},
      {"measurement": "EC50, pseudovirus neutralization", "setting": "[7]", "result": 0.12, "unit": "ng/mL"},
      {"measurement": "EC80, pseudovirus neutralization", "setting": "[7]", "result": 1.4, "unit": "ng/mL"},
      {"measurement": "EC90, pseudovirus neutralization", "setting": "[7]", "result": 6, "unit": "ng/mL"},
      {"measurement": "Emax, pseudovirus neutralization (% neutralization)", "setting": "[7]", "result": 100},
      {"measurement": "EC50, pseudovirus neutralization", "setting": "[2]", "result": 0.57, "unit": "ng/mL"},
      {"measurement": "EC50, pseudovirus neutralization, TMPRSS2-Vero E6, with isotype", "setting": "[2]", "result": 1.7, "unit": "ng/mL"},
      {"measurement": "EC50, pseudovirus neutralization, Vero E6, with isotype", "setting": "[2]", "result": 0.64, "unit": "ng/mL"},
      {"measurement": "EC80, pseudovirus neutralization", "setting": "[2]", "result": 4.9, "unit": "ng/mL"},
      {"measurement": "EC80, pseudovirus neutralization, TMPRSS2-Vero E6, with isotype", "setting": "[2]", "result": 11, "unit": "ng/mL"},
      {"measurement": "EC80, pseudovirus neutralization, Vero E6, with isotype", "setting": "[2]", "result": 2.7, "unit": "ng/mL"},
      {"measurement": "EC90, pseudovirus neutralization", "setting": "[2]", "result": 18, "unit": "ng/mL"},
      {"measurement": "EC90, pseudovirus neutralization, TMPRSS2-Vero E6, with isotype", "setting": "[2]", "result": 32, "unit": "ng/mL"},
      {"measurement": "EC90, pseudovirus neutralization, Vero E6, with isotype", "setting": "[2]", "result": 6.1, "unit": "ng/mL"},
      {"measurement": "Emax, pseudovirus neutralization (% neutralization)", "setting": "[2]", "result": 99.9},
      {"measurement": "Emax, pseudovirus neutralization, TMPRSS2-Vero E6, with isotype (% neutralization)", "setting": "[2]", "result": 99.4},
      {"measurement": "Emax, pseudovirus neutralization, Vero E6, with isotype (% neutralization)", "setting": "[2]", "result": 99.4},
      {"measurement": "EC50, pseudovirus neutralization", "setting": "[8]", "result": 0.13, "unit": "ng/mL"},
      {"measurement": "EC80, pseudovirus neutralization", "setting": "[8]", "result": 1.1, "unit": "ng/mL"},
      {"measurement": "EC90, pseudovirus neutralization", "setting": "[8]", "result": 3.7, "unit": "ng/mL"},
      {"measurement": "Emax, pseudovirus neutralization (% neutralization)", "setting": "[8]", "result": 99.9}
    ]},
    {"substance": "Bebtelovimab (antibody)", "values": [
      {"measurement": "Neutralization - IC50, pseudovirus", "setting": "[1]", "result": 1220, "unit": "ng/mL"}
    ]}
  ]
}
